Results from publication doi:10.1101/2020.10.23.352708.

Columns and labels:
Experiment in all cases: flow cytometry on cells
CXCR4 D97E (human) = CXCR4 D97E (human) (UniProt P61073)
CXCR4 L41A (human) = CXCR4 L41A (human) (UniProt P61073)
CXCR4 V112L (human) = CXCR4 V112L (human) (UniProt P61073)

- fold reduction of the binding affinity against wild-type CXCR4 (CXCR4 D97E (human)): 20 fold
- fold increase of the IC50 against wild-type CXCR4 (CXCR4 L41A (human)): 20 fold
- fold increase of the IC50 against wild-type CXCR4 (CXCR4 V112L (human)): 6 fold
Substance: Endogenous Peptide Inhibitor of CXCR4 (EPI-X4)
